A word on the Tm: it is the temperature at the midpoint of the melting transition.

Sequences and labels used below:
B1: Outer membrane porin C, P06996 (parent)
chain: MKVKVLSLLVPALLVAGAANAAEVYNKDGNKLDLYGKVDGLHYFSDNKDVDGDQTYMRLGFKGETQVTDQLTGYGQWEYQIQGNSAENENNSWTRVAFAGLKFQDVGSFDYGRNYGVVYDVTSWTDVLPEFGGDTYGSDNFMQQRGNGFATYRNTDFFGLVDGLNFAVQYQGKNGNPSGEGFTSGVTNNGRDALRQNGDGVGGSITYDYEGFGIGGAISSSKRTDAQNTAAYIGNGDRAETYTGGLKYDANNIYLAAQYTQTYNATRVGSLGWANKAQNFEAVAQYQFDFGLRPSLAYLQSKGKNLGRGYDDEDILKYVDVGATYYFNKNMSTYVDYKINLLDDNQFTRDAGINTDNIVALGLVYQF

“And” between values parts separate entries of the source, which are not always exact repeats. Equal values may be shown once.

The variants in the data set derive from B1. The settings on record: Escherichia coli (strain K12), pH 7, Thermal, phosphate 50 mM, structure 2J1N, whole UniProt chain shown.

Take MKVKVLSLLVPALLVAGAANAAEVYNKDGNKLDLYGKVDGLHYFSDNKDVDGDQTYMRLGFKGETQVTDQLTGYGQWEYQIQGNSAENENNSWTCVAFAGLKFQDVGSFDYGRNYGVVYDVTSWTDVLPEFGGDTYGSDNFMQQRGNGFATYRNTDFFGLVDGLNFAVQYQGKNGNPSGEGFTSGVTNNGRDALRQNGDGVGGSITYDYEGFGIGGAISSSKRTDAQNTAAYIGNGDRAETYTGGLKYDANNIYLAAQYTQTYNATRVGSLGWANKAQNFEAVAQYQFDFGLRPSLAYLQSKGKNLGRGYDDEDILKYVDVGATYYFNKNMSTYVDYKINLLDDNQFTRDAGINTDNIVALGLVYQF [R95C]: for the setting “CD”, the melting temperature (Tm) turned out to be 68.4 °C and the “change of melting temperature, mutant - wild type (higher = more stable)” value (“change of melting temperature, mutant” below) was -1.5 °C. For the setting “DSC”, the Tm was determined as 84.6 °C; the “change of melting temperature, mutant” value is -2.35 °C; the “unfolding enthalpy (calorimetric)” value is 297 kcal/mol.
MKVKVLSLLVPALLVAGAANAAEVYNKDGNKLDLYGKVDGLHYFSDNKDVDGDQTYMRLGFKGETQVTDQLTGYGQWEYQIQGNSAENENNSWTSVAFAGLKFQDVGSFDYGRNYGVVYDVTSWTDVLPEFGGDTYGSDNFMQQRGNGFATYRNTDFFGLVDGLNFAVQYQGKNGNPSGEGFTSGVTNNGRDALRQNGDGVGGSITYDYEGFGIGGAISSSKRTDAQNTAAYIGNGDRAETYTGGLKYDANNIYLAAQYTQTYNATRVGSLGWANKAQNFEAVAQYQFDFGLRPSLAYLQSKGKNLGRGYDDEDILKYVDVGATYYFNKNMSTYVDYKINLLDDNQFTRDAGINTDNIVALGLVYQF [R95S]: the “change of melting temperature, mutant” value (CD) is -1.8 °C and -6.8 °C. For the setting “DSC”, the Tm came to 81.7 °C; the “change of melting temperature, mutant” value was -5.26 °C; the “unfolding enthalpy (calorimetric)” value was determined as 299 kcal/mol.
Take MKVKVLSLLVPALLVAGAANAAEVYNKDGNKLDLYGKVDGLHYFSDNKDVDGDQTYMRLGFKGETQVTDQLTGYGQWEYQIQGNSAENENNSWTGVAFAGLKFQDVGSFDYGRNYGVVYDVTSWTDVLPEFGGDTYGSDNFMQQRGNGFATYRNTDFFGLVDGLNFAVQYQGKNGNPSGEGFTSGVTNNGRDALRQNGDGVGGSITYDYEGFGIGGAISSSKRTDAQNTAAYIGNGDRAETYTGGLKYDANNIYLAAQYTQTYNATRVGSLGWANKAQNFEAVAQYQFDFGLRPSLAYLQSKGKNLGRGYDDEDILKYVDVGATYYFNKNMSTYVDYKINLLDDNQFTRDAGINTDNIVALGLVYQF [R95G]: for the setting “CD”, the Tm was 68.1 °C and the “change of melting temperature, mutant” value was -1.8 °C. Moreover, under “DSC”, the Tm came to 80.8 °C; the “change of melting temperature, mutant” value was -6.19 °C; the “unfolding enthalpy (calorimetric)” value amounted to 326 kcal/mol.
For MKVKVLSLLVPALLVAGAANAAEVYNKDGNKLDLYGKVDGLHYFSDNKDVDGDQTYMRLGFKGETQVTDQLTGYGQWEYQIQGNSAENENNSWTAVAFAGLKFQDVGSFDYGRNYGVVYDVTSWTDVLPEFGGDTYGSDNFMQQRGNGFATYRNTDFFGLVDGLNFAVQYQGKNGNPSGEGFTSGVTNNGRDALRQNGDGVGGSITYDYEGFGIGGAISSSKRTDAQNTAAYIGNGDRAETYTGGLKYDANNIYLAAQYTQTYNATRVGSLGWANKAQNFEAVAQYQFDFGLRPSLAYLQSKGKNLGRGYDDEDILKYVDVGATYYFNKNMSTYVDYKINLLDDNQFTRDAGINTDNIVALGLVYQF [R95A], where the note is “DSC”, the Tm turned out to be 81.3 °C; the “change of melting temperature, mutant” value was -5.66 °C; the “unfolding enthalpy (calorimetric)” value came out at 258 kcal/mol.
On to MKVKVLSLLVPALLVAGAANAAEVYNKDGNKLDLYGKVDGLHYFSDNKDVDGDQTYMHLGFKGETQVTDQLTGYGQWEYQIQGNSAENENNSWTRVAFAGLKFQDVGSFDYGRNYGVVYDVTSWTDVLPEFGGDTYGSDNFMQQRGNGFATYRNTDFFGLVDGLNFAVQYQGKNGNPSGEGFTSGVTNNGRDALRQNGDGVGGSITYDYEGFGIGGAISSSKRTDAQNTAAYIGNGDRAETYTGGLKYDANNIYLAAQYTQTYNATRVGSLGWANKAQNFEAVAQYQFDFGLRPSLAYLQSKGKNLGRGYDDEDILKYVDVGATYYFNKNMSTYVDYKINLLDDNQFTRDAGINTDNIVALGLVYQF [R58H], for which the “change of melting temperature, mutant” value (CD) was -1.5 °C and -1.1 °C and -2 °C. For the same variant, where the note is “DSC”, the Tm is 87.3 °C; the “change of melting temperature, mutant” value came out at 0.31 °C; the “unfolding enthalpy (calorimetric)” value was found to be 359 kcal/mol.
Consider MKVKVLSLLVPALLVAGAANAAEVYNKDGNKLDLYGKVDGLHYFSDNKDVDGDQTYMRLGFKGETQVTDQLTGYGQWEYQIQGNSAENENNSWTRVAFAGLKFQDVGSFDYGRNYGVVYDVTSWTGVLPEFGGDTYGSDNFMQQRGNGFATYRNTDFFGLVDGLNFAVQYQGKNGNPSGEGFTSGVTNNGRDALRQNGDGVGGSITYDYEGFGIGGAISSSKRTDAQNTAAYIGNGDRAETYTGGLKYDANNIYLAAQYTQTYNATRVGSLGWANKAQNFEAVAQYQFDFGLRPSLAYLQSKGKNLGRGYDDEDILKYVDVGATYYFNKNMSTYVDYKINLLDDNQFTRDAGINTDNIVALGLVYQF [D126G], for which, under “DSC”, the Tm worked out at 81.5 °C; the “change of melting temperature, mutant” value was -5.44 °C; the “unfolding enthalpy (calorimetric)” value came out at 304 kcal/mol.
Turning to MKVKVLSLLVPALLVAGAANAAEVYNKDGNKLDLYGKVDGLHYFSDNKDVDGDQTYMRLGFKGETQVTDQLTGYGQWEYQIQGNSAENENNSWTAVAFAGLKFQDVGSFDYGRNYGVVYDVTSWTGVLPEFGGDTYGSDNFMQQRGNGFATYRNTDFFGLVDGLNFAVQYQGKNGNPSGEGFTSGVTNNGRDALRQNGDGVGGSITYDYEGFGIGGAISSSKRTDAQNTAAYIGNGDRAETYTGGLKYDANNIYLAAQYTQTYNATRVGSLGWANKAQNFEAVAQYQFDFGLRPSLAYLQSKGKNLGRGYDDEDILKYVDVGATYYFNKNMSTYVDYKINLLDDNQFTRDAGINTDNIVALGLVYQF [R95A D126G], where the note is “DSC”, the Tm came out at 73.9 °C; the “change of melting temperature, mutant” value is -13 °C; the “unfolding enthalpy (calorimetric)” value is 192 kcal/mol.

The values are drawn from FireProtDB (doi:10.1021/bi100877y).
